Data from patent US10196442B2, “Methods of inhibiting growth of a colon cancer tumor in a subject by administering monoclonal antibodies to G protein-coupled receptor 49 (GPR49)” (Bionomics Inc., priority 2011, dated 2019).

Key:
[1] = system: NIH 3T3 fibroblast cells stably transfected with GPR49; assay: Cell Titer Glo proliferation of GPR49-3T3 cells; assay type: cell-based
GPR49-Fc = biological target: T1, GPR49-Fc (Homo sapiens, UniProt O75473); assay: Solution affinity surface plasmon resonance of RSPO-1 on GPR49-Fc; assay type: binding; settings: solution affinity SPR
T1 construct: FLAG (C)
T1 sequence (O75473 with tags, fused parts or gaps): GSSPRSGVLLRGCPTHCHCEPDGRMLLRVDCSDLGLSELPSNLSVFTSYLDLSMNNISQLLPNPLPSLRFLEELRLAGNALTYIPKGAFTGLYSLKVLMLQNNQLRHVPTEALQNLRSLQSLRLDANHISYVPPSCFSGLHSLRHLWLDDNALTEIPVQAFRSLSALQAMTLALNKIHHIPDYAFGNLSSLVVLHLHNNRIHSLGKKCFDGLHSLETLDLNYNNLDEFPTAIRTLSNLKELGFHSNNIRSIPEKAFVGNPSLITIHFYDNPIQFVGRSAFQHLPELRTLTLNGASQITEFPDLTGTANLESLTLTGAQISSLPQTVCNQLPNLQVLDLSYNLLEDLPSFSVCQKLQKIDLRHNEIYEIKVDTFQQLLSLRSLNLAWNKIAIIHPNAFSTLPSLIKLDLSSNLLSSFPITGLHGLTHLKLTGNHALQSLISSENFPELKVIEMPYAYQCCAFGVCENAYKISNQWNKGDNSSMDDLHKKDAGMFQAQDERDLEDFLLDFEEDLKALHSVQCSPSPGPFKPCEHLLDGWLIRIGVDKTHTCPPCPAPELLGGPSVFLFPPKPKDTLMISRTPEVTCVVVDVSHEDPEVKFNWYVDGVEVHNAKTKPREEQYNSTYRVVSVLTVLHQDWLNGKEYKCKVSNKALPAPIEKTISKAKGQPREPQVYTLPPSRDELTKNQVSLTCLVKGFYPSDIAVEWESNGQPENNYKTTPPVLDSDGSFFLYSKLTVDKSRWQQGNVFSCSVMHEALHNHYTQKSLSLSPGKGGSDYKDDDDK
Procedure: Methods: Binding of RSPO to GPR49 was analyzed using solution affinity surface plasmon resonance (Day E S, et al. Biochemistry. 2005 Feb. 15; 44(6):1919-31). The method utilizes conditions of so-called “mass-transport-limited” binding, in which the initial rate of ligand binding (protein binding to the senor chip) is proportional to the concentration of ligand in solution (BIApplications Handbook (1994) Chapter 6: Concentration measurement, pp 6-1-6-10, Pharmacia Biosensor AB). Under these conditions, binding of the soluble analyte (protein flowing over chip surface) to the immobilized protein on the chip is fast compared to the diffusion of the analyte into the dextran matrix on the chip surface. Therefore, the diffusion properties of the analyte and the concentration of analyte in solution flowing over the chip surface determine the rate at which analyte binds to the chip. In this experiment, the concentration of free RSPO-1 in solution is determined by the initial rate of binding to a CMS Biacore chip containing immobilized GPR49-Fc. Into these RSPO-1 solutions were titrated the competing GPR49-Fc.

B1: R-spondin 1: R-spondin family ligand purchased from R& D systems (protein, UniProt Q2MKA7 21-263, looked up)
R-spondin-1: SRGIKGKRQRRISAEGSQACAKGCELCSEVNGCLKCSPKLFILLERNDIRQVGVCLPSCPPGYFDARNPDMNKCIKCKIEHCEACFSHNFCTKCKEGLYLHKGRCYPACPEGSSAANGTMECSSPAQCEMSEWSPWGPCSKKQQLCGFRRGSEERTRRVLHAPVGDHAACSDTKETRRCTVRRVPCPEGQKRRKGGQGRRENANRNLARKESKEAGAGSRRRKGQQQQQQQGTVGPLTSAGPA
increase in proliferation ([1]; GPR49-3T3 clone 28, compared to Stanniocalcin): 4 fold | increase in cell proliferation ([1]; GPR49-3T3 clone 50, 2 days, serum free, compared to Stanniocalcin): 25-40% | binding profile to GPR49-Fc (GPR49-Fc): bi-phasic binding profile
